In the supplement of paper PMC10567573:

B1: SETD8 (parent)
chain: FVVEYHGDLIEITDAKKREALYAQ

Variants of: B1
Assay: protein stability index of a GFP-peptide fusion (GPS, HEK-293T) (PSI 1-6); higher = more stable
Conditions: c terminus: a fixed tail appended
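Also: lentivirally expressed fusions sorted by FACS into six bins by GFP to DsRed ratio, PSI derived from sequencing read proportions per bin multiplied by bin number.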

Row | Variant | protein stability index
1 | FVVEYAGDLIEITDAKKREALYAQ [H6A] | 1.9
2 | FVVEYQGDLIEITDAKKREALYAQ [H6Q] | 2.06
3 | FVVEYGGDLIEITDAKKREALYAQ [H6G] | 2.15
4 | FVVEYPGDLIEITDAKKREALYAQ [H6P] | 2
5 | FVYEYHGDLIEITDAKKREALYAQ [V3Y] | 1.99
6 | FVTEYHGDLIEITDAKKREALYAQ [V3T] | 2.23
7 | FVNEYHGDLIEITDAKKREALYAQ [V3N] | 3.01
8 | FVQEYHGDLIEITDAKKREALYAQ [V3Q] | 2.32
9 | FVIEYHGDLIEITDAKKREALYAQ [V3I] | 2.83
10 | FVHEYHGDLIEITDAKKREALYAQ [V3H] | 2.77
11 | FVKEYHGDLIEITDAKKREALYAQ [V3K] | 2.36
12 | FVPEYHGDLIEITDAKKREALYAQ [V3P] | 2.03
13 | FVREYHGDLIEITDAKKREALYAQ [V3R] | 2.02
14 | FVSEYHGDLIEITDAKKREALYAQ [V3S] | 1.84
15 | FVFEYHGDLIEITDAKKREALYAQ [V3F] | 1.51
16 | FVMEYHGDLIEITDAKKREALYAQ [V3M] | 2.64
17 | FVGEYHGDLIEITDAKKREALYAQ [V3G] | 3.07
18 | FVWEYHGDLIEITDAKKREALYAQ [V3W] | 2.12
19 | FVEEYHGDLIEITDAKKREALYAQ [V3E] | 2.83
20 | FVDEYHGDLIEITDAKKREALYAQ [V3D] | 2.15
21 | FVLEYHGDLIEITDAKKREALYAQ [V3L] | 1.98
22 | FVVEYHGDLVEITDAKKREALYAQ [I10V] | 1.56
23 | FVVEYHGDLLEITDAKKREALYAQ [I10L] | 2.17
24 | FVVEYHGDLREITDAKKREALYAQ [I10R] | 1.82

Row | Variant | protein stability index
25 | FVVEYHGDLEEITDAKKREALYAQ [I10E] | 2.21
26 | FVVEYHGDLYEITDAKKREALYAQ [I10Y] | 1.61
27 | FVVEYHGDLSEITDAKKREALYAQ [I10S] | 2.21
28 | FVVEYHGDLGEITDAKKREALYAQ [I10G] | 2.11
29 | FVVEYHGDLPEITDAKKREALYAQ [I10P] | 2.25
30 | FVVEYHGDLNEITDAKKREALYAQ [I10N] | 1.88
31 | FVVEYHGDLHEITDAKKREALYAQ [I10H] | 1.64
32 | FVVEYHGDLQEITDAKKREALYAQ [I10Q] | 2.5
33 | FVVEYHGDLFEITDAKKREALYAQ [I10F] | 2.1
34 | FVVEYHGDLWEITDAKKREALYAQ [I10W] | 1.21
35 | FVVEYHGDLTEITDAKKREALYAQ [I10T] | 2.01
36 | FVVEYHGDLAEITDAKKREALYAQ [I10A] | 2.08
37 | FVVEYHGDLMEITDAKKREALYAQ [I10M] | 1.67
38 | FVVEYHGDLCEITDAKKREALYAQ [I10C] | 1.99
39 | FVVEYHGDLDEITDAKKREALYAQ [I10D] | 2.58
40 | FVVEYHGDLKEITDAKKREALYAQ [I10K] | 2.28
41 | FVVEYHGDLIRITDAKKREALYAQ [E11R] | 1.37
42 | FVVEYHGDLITITDAKKREALYAQ [E11T] | 2.43
43 | FVVEYHGDLIVITDAKKREALYAQ [E11V] | 1.96
44 | FVVEYHGDLIKITDAKKREALYAQ [E11K] | 2.1
45 | FVVEYHGDLINITDAKKREALYAQ [E11N] | 2.04
46 | FVVEYHGDLIYITDAKKREALYAQ [E11Y] | 2.56
47 | FVVEYHGDLICITDAKKREALYAQ [E11C] | 3.07
48 | FVVEYHGDLIHITDAKKREALYAQ [E11H] | 2.25

Row | Variant | protein stability index
49 | FVVEYHGDLIAITDAKKREALYAQ [E11A] | 1.14
50 | FVVEYHGDLIDITDAKKREALYAQ [E11D] | 2.36
51 | FVVEYHGDLIMITDAKKREALYAQ [E11M] | 2.49
52 | FVVEYHGDLISITDAKKREALYAQ [E11S] | 2.25
53 | FVVEYHGDLIPITDAKKREALYAQ [E11P] | 2.62
54 | FVVEYHGDLILITDAKKREALYAQ [E11L] | 3.14
55 | FVVEYHGDLIQITDAKKREALYAQ [E11Q] | 2.51
56 | FVVEYHGDLIFITDAKKREALYAQ [E11F] | 2.92
57 | FVVFYHGDLIEITDAKKREALYAQ [E4F] | 1.88
58 | FVVQYHGDLIEITDAKKREALYAQ [E4Q] | 2.69
59 | FVVLYHGDLIEITDAKKREALYAQ [E4L] | 2.61
60 | FVVGYHGDLIEITDAKKREALYAQ [E4G] | 3.07
61 | FVVYYHGDLIEITDAKKREALYAQ [E4Y] | 1.72
62 | FVVTYHGDLIEITDAKKREALYAQ [E4T] | 1.74
63 | FVVVYHGDLIEITDAKKREALYAQ [E4V] | 1.6
64 | FVVKYHGDLIEITDAKKREALYAQ [E4K] | 1.45
65 | FVVRYHGDLIEITDAKKREALYAQ [E4R] | 1.97
66 | FVVNYHGDLIEITDAKKREALYAQ [E4N] | 1.92
67 | FVVSYHGDLIEITDAKKREALYAQ [E4S] | 1.76
68 | FVVCYHGDLIEITDAKKREALYAQ [E4C] | 1.82
69 | FVVHYHGDLIEITDAKKREALYAQ [E4H] | 1.6
70 | FVVPYHGDLIEITDAKKREALYAQ [E4P] | 1.84
71 | FVVAYHGDLIEITDAKKREALYAQ [E4A] | 2.3
72 | FVVWYHGDLIEITDAKKREALYAQ [E4W] | 1.44

Row | Variant | protein stability index
73 | FVVMYHGDLIEITDAKKREALYAQ [E4M] | 1.67
74 | FVVDYHGDLIEITDAKKREALYAQ [E4D] | 2.35
75 | FVVIYHGDLIEITDAKKREALYAQ [E4I] | 1.03
76 | FVVEYHGDEIEITDAKKREALYAQ [L9E] | 2.42
77 | FVVEYHGDSIEITDAKKREALYAQ [L9S] | 1.74
78 | FVVEYHGDWIEITDAKKREALYAQ [L9W] | 1.47
79 | FVVEYHGDRIEITDAKKREALYAQ [L9R] | 1.8
80 | FVVEYHGDVIEITDAKKREALYAQ [L9V] | 2.47
81 | FVVEYHGDPIEITDAKKREALYAQ [L9P] | 2.26
82 | FVVEYHGDTIEITDAKKREALYAQ [L9T] | 2.06
83 | FVVEYHGDGIEITDAKKREALYAQ [L9G] | 1.59
84 | FVVEYHGDIIEITDAKKREALYAQ [L9I] | 1.59
85 | FVVEYHGDDIEITDAKKREALYAQ [L9D] | 2.91
86 | FVVEYHGDFIEITDAKKREALYAQ [L9F] | 3.03
87 | FVVEYHGDHIEITDAKKREALYAQ [L9H] | 1.93
88 | FVVEYHGDCIEITDAKKREALYAQ [L9C] | 2.25
89 | FVVEYHGDQIEITDAKKREALYAQ [L9Q] | 2.73
90 | FVVEYHGDAIEITDAKKREALYAQ [L9A] | 2.31
91 | FVVEYHGDYIEITDAKKREALYAQ [L9Y] | 1.68
92 | FVVEYHGDNIEITDAKKREALYAQ [L9N] | 2.86
93 | FVVEYHGDMIEITDAKKREALYAQ [L9M] | 1.46
94 | FVVEYHGDKIEITDAKKREALYAQ [L9K] | 2.58
